# B1: HPK, HER3-targeted penton base chimera (heregulin ligand - linker - Ad5 penton base - decalysine) (other, human | adenovirus serotype 5 (Ad5))
# chain: ELLPPRLKEMKSQESAAGSKLVLRCETSSEYSSLRFKWFKNGNELNRKNKPQNIKIQKKPGKSELRINKASLADSGEYMCKVISKLGNDSASANITIVESNEIITGMPASTEGAYVSSESPIRISVSTEGANTSSSTSTSTTGTSHLVKCAEKEKTFCVNGGECFMVKDLSNPSRYLCKCQPGFTGARCTENVPMKVQNQEKAEELYGGSGGSGSMRRAAMYEEGPPPSYESVVSAAPVAAALGSPFDAPLDPPFVPPRYLRPTGGRNSIRYSELAPLFDTTRVYLVDNKSTDVASLNYQNDHSNFLTTVIQNNDYSPGEASTQTINLDDRSHWGGDLKTILHTNMPNVNEFMFTNKFKARVMVSRLPTKDNQVELKYEWVEFTLPEGNYSETMTIDLMNNAIVEHYLKVGRQNGVLESDIGVKFDTRNFRLGFDPVTGLVMPGVYTNEAFHPDIILLPGCGVDFTHSRLSNLLGIRKRQPFQEGFRITYDDLEGGNIPALLDVDAYQASLKDDTEQGGGGAGGSNSSGSGAEENSNAAAAAMQPVEDMNDHAIRGDTFATRAEEKRAEAEAAAEAAAPAAQPEVEKPQKKPVIKPLTEDSKKRSYNLISNDSTFTQYRSWYLAYNYGDPQTGIRSWTLLCTPDVTCGSEQVYWSLPDMMQDPVTFRSTRQISNFPVVGAELLPVHSKSFYNDQAVYSQLIRQFTSLTHVFNRFPENQILARPPAPTITTVSENVPALTDHGTLPLRNSIGGVQRVTITDARRRTCPYVYKALGIVSPRVLSSRTFKKKKKKKKKK
# notes: domain II, oligopeptide linker; domain III, adenovirus serotype 5 capsid penton base (PB); domain IV, carboxy-terminal decalysine tail (K10); About 92 kDa monomer; also called HerPBK10; HPK capsomere; not shown: His6, N-terminal, kept
# Target: the molecule itself
# Assay: native gel or EMSA; native PAGE of purified HPK under neutral conditions (storage buffer 20 mM HEPES pH 7.45, 150 mM NaCl, 10% glycerol; pH 7.4), 4-15% gel, 25 mM Tris, 192 mM glycine pH 8.3
protein,measurement,value
B1,stoichiometry N,≥ 5
